# Measured values as given in patent US20200109398.
# Tested on: R4Al (R4_AL) retrotransposase (Ascaris lumbricoides)
# Experiment: cell_activity
# Conditions: ddPCR 3' junction, HEK293T, plasmid cis
substance,measurement,value
human rDNA R4 target site,activity (copies/genome),0.085
